According to article PMC4498904, “Mutagenesis Study Reveals the Rim of Catalytic Entry Site of HDAC4 and -5 as the Major Binding Surface of SMRT Corepressor” (PLoS ONE, 2015):

B1: KGC-HDAC4c (C-terminal portion of Kusabira Green protein fused with HDAC4c), wild type [human] / KGN-SRD3c (N-terminal portion of Kusabira Green protein fused with SRD3c) [human] (parent complex)
chain 1: PRFTTGLVYDTLMLKHQCTCGSSSSHPEHAGRIQSIWSRLQETGLRGKCECIRGRKATLEELQTVHSEAHTLLYGTNPLNRQKLDSKKLLGSLASVFVRLPCGGVGVDSDTIWNEVHSAGAARLAVGCVVELVFKVATGELKNGFAVVRPPGHHAEESTPMGFCYFNSVAVAAKLLQQRLSVSKILIVDWDVHHGNGTQQAFYSDPSVLYMSLHRYDDGNFFPGSGAPDEVGTGPGVGFNVNMAFTGGLDPPMGDAEYLAAFRTVVMPIASEFAPDVVLVSSGFDAVEGHPTPLGGYNLSARCFGYLTKQLMGLAGGRIVLALEGGHDLTAICDASEACVSALLGNELDPLPEKVLQQRPNANAVRSMEKVMEIHSKYWRCLQRTTSTAGRSLIEAQTCENEEAET
chain 2: EGGMSVTQCSKEDGRSSSGPPHETAAPKRTYDMMEGRVGRAISSASIEGLMGRAIPPERHSPHHLKEQHHIRGSITQGIPRSYVEAQEDYLRREAKLLKREGTPPPPPPSRDLTEAYKTQALGPLKLKPAHEGLVATVKEAGRSIHEIPREELRHTPELPLAPRPLKEGSITQGTPLKYDTGASTTGSKKHDVRSLIGSPGRTFPPVHPLDVMADARALERACY

Variants of: B1
Test: BiFC assay (fluorescence spectrophotometer); HEK293 cells; KGN-SRD3c (1 μg) and KGC-HDAC4c mutant (1 μg); 48 hours of transfection; whole cell lysates; parent: 8; read off a plot

| response | Variant |
| --- | --- |
| ~4.2 RFU | chain 1 PRFTTGLVYDTLMLKHQCTCGSSSSHPEHAGRIQSIWSRLQETGLRGKCECIRGRKATLEELQTVHSEAHTLLYGTNPLNRQKLDSKKLLGSLASVFVRLPCGGVGVDSDTIWNEVHSAGAARLAVGCVVELVFKVATGELKNGFAVVRHPGHHAEESTPMGFCYFNSVAVAAKLLQQRLSVSKILIVDWDVHHGNGTQQAFYSDPSVLYMSLHRYDDGNFFPGSGAPDEVGTGPGVGFNVNMAFTGGLDPPMGDAEYLAAFRTVVMPIASEFAPDVVLVSSGFDAVEGHPTPLGGYNLSARCFGYLTKQLMGLAGGRIVLALEGGHDLTAICDASEACVSALLGNELDPLPEKVLQQRPNANAVRSMEKVMEIHSKYWRCLQRTTSTAGRSLIEAQTCENEEAET [chain 1 P150H] |
| ~4.5 RFU | chain 1 PRFTTGLVYDTLMLKHQCTCGSSSSHPEHAGRIQSIWSRLQETGLRGKCECIRGRKATLEELQTVHSEAHTLLYGTNPLNRQKLDSKKLLGSLASVFVRLPCGGVGVDSDTIWNEVHSAGAARLAVGCVVELVFKVATGELKNGFAVVRPPGHHAEESTPMGSCYFNSVAVAAKLLQQRLSVSKILIVDWDVHHGNGTQQAFYSDPSVLYMSLHRYDDGNFFPGSGAPDEVGTGPGVGFNVNMAFTGGLDPPMGDAEYLAAFRTVVMPIASEFAPDVVLVSSGFDAVEGHPTPLGGYNLSARCFGYLTKQLMGLAGGRIVLALEGGHDLTAICDASEACVSALLGNELDPLPEKVLQQRPNANAVRSMEKVMEIHSKYWRCLQRTTSTAGRSLIEAQTCENEEAET [chain 1 F163S] |
| ~4.2 RFU | chain 1 PRFTTGLVYDTLMLKHQCTCGSSSSHPEHAGRIQSIWSRLQETGLRGKCECIRGRKATLEELQTVHSEAHTLLYGTNPLNRQKLDSKKLLGSLASVFVRLPCGGVGVDSDPIWNEVHSAGAARLAVGCVVELVFKVATGELKNGFAVVRPPGHHAEESTPMGFCYFNSVAVAAKLLQQRLSVSKILIVDWDVHHGNGTQQAFYSDPSVLYMSLHRYDDGNFFPGSGAPDEVGTGPGVGFNVNMAFTGGLDPPMGDAEYLAAFRTVVMPIASEFAPDVVLVSSGFDAVEGHPTPLGGYNLSARCFGYLTKQLMGLAGGRIVLALEGGHDLTAICDASEACVSALLGNELDPLPEKVLQQRPNANAVRSMEKVMEIHSKYWRCLQRTTSTAGRSLIEAQTCENEEAET [chain 1 T111P] |
| ~5.3 RFU | chain 1 PRFTTGLVYDTLMLKHQCTCGSSSSHPEHAGRIQSIWSRLQETGLRGKCECIRGRKATLEELQTVHSEAHTLLYGTNPLNRQKLDSKKLLGSLASVFVRLPCGGVGVDSDTIWNEVHSAGAARLAVGCVVELVFKVATGELKNGFAVVRPPGHHAEESTPMGFCYFNSVAVAAKLLQQRLSVSKILIVDWDVHHGNGTQQAFYSDPSVLYMSLHRYDDANFFPGSGAPDEVGTGPGVGFNVNMAFTGGLDPPMGDAEYLAAFRTVVMPIASEFAPDVVLVSSGFDAVEGHPTPLGGYNLSARCFGYLTKQLMGLAGGRIVLALEGGHDLTAICDASEACVSALLGNELDPLPEKVLQQRPNANAVRSMEKVMEIHSKYWRCLQRTTSTAGRSLIEAQTCENEEAET [chain 1 G219A] |
| ~4.6 RFU | chain 1 PRFTTGLVYDTLMLKHQCTCGSSSSHPEHAGRIQSIWSRLQETGLRGKCECIRGRKATLEELQTVHSEAHTLLYGTNPLNRQKLDSKKLLGSLASVFVRLPCGGVGVDSDTIWNEVHSAGAARLAVGCVVELVFKVATGELKNGFAVVRPPGHHTEESTPMGFCYFNSVAVAAKLLQQRLSVSKILIVDWDVHHGNGTQQAFYSDPSVLYMSLHRYDDGNFFPGSGAPDEVGTGPGVGFNVNMAFTGGLDPPMGDAEYLAAFRTVVMPIASEFAPDVVLVSSGFDAVEGHPTPLGGYNLSARCFGYLTKQLMGLAGGRIVLALEGGHDLTAICDASEACVSALLGNELDPLPEKVLQQRPNANAVRSMEKVMEIHSKYWRCLQRTTSTAGRSLIEAQTCENEEAET [chain 1 A155T] |
| ~4.2 RFU | chain 1 PRFTTGLVYDTLMLKHQCTCGSSSSHPEHAGRIQSIWSRLQETGLRGKCECIRGRKATLEELQTVHSEAHTLLYGTNPLNRQKLDSKKLLGSLASVFVRLPCGGVGVDSDTIWNEVHSAGAARLAVGCVVELVFKVATGELKNGFAVVRPPGHHAEESTPMGFCYFNSVAVAAKLLQQRLSVSKILIVDWDVHHGSGTQQAFYSDPSVLYMSLHRYDDGNFFPGSGAPDEVGTGPGVGFNVNMAFTGGLDPPMGDAEYLAAFRTVVMPIASEFAPDVVLVSSGFDAVEGHPTPLGGYNLSARCFGYLTKQLMGLAGGRIVLALEGGHDLTAICDASEACVSALLGNELDPLPEKVLQQRPNANAVRSMEKVMEIHSKYWRCLQRTTSTAGRSLIEAQTCENEEAET [chain 1 N196S] |
| ~3.9 RFU | chain 1 PRFTTGLVYDTLMLKHQCTCGSSSSHPEHAGRIQSIWSRLQETGLRGKCECIRGRKATLEELQTVHSEAHTLLYGTNPLNRQKLDSKKLLGSLASVFVRLPCGGVGVDSDTIWNEVHSAGAARLAVGCVVELVFKVATGELKNGFAVVRPPGHHAEESTPMGFCYFNSVAVAAKLLQQRLSVSKILIVDWDVHRGNGTQQAFYSDPSVLYMSLHRYDDGNFFPGSGAPDEVGTGPGVGFNVNMAFTGGLDPPMGDAEYLAAFRTVVMPIASEFAPDVVLVSSGFDAVEGHPTPLGGYNLSARCFGYLTKQLMGLAGGRIVLALEGGHDLTAICDASEACVSALLGNELDPLPEKVLQQRPNANAVRSMEKVMEIHSKYWRCLQRTTSTAGRSLIEAQTCENEEAET [chain 1 H194R] |
| ~4.4 RFU | chain 1 PRFTTGLVYDTLMLKHQCTCGSSSSHPEHAGRIQSIWSRLQETGLRGKCECIRGRKATLEELQTVHSEAHTLLYGTNPLNRQKLDSKKLLGSLASVFVRLPCGGVGVDSDTIWNEVHPAGAARLAVGCVVELVFKVATGELKNGFAVVRPPGHHAEESTPMGFCYFNSVAVAAKLLQQRLSVSKILIVDWDVHHGNGTQQAFYSDPSVLYMSLHRYDDGNFFPGSGAPDEVGTGPGVGFNVNMAFTGGLDPPMGDAEYLAAFRTVVMPIASEFAPDVVLVSSGFDAVEGHPTPLGGYNLSARCFGYLTKQLMGLAGGRIVLALEGGHDLTAICDASEACVSALLGNELDPLPEKVLQQRPNANAVRSMEKVMEIHSKYWRCLQRTTSTAGRSLIEAQTCENEEAET [chain 1 S118P] |

More lines, now with the values behind:

| Variant | response |
| --- | --- |
| chain 1 PRFTTGLVYDTLMLKHQCTCGSSSSHPEHAGRIQSIWSRLQETGLRGKCECIRGRKATLEELQTVHSEAHTLLYGTNPLNRQKLDSKKLLGSLASVFVRLPCGGVGVDSYTIWNEVHSAGAARLAVGCVVELVFKVATGELKNGFAVVRPPGHHAEESTPMGFCYFNSVAVAAKLLQQRLSVSKILIVDWDVHHGNGTQQAFYSDPSVLYMSLHRYDDGNFFPGSGAPDEVGTGPGVGFNVNMAFTGGLDPPMGDAEYLAAFRTVVMPIASEFAPDVVLVSSGFDAVEGHPTPLGGYNLSARCFGYLTKQLMGLAGGRIVLALEGGHDLTAICDASEACVSALLGNELDPLPEKVLQQRPNANAVRSMEKVMEIHSKYWRCLQRTTSTAGRSLIEAQTCENEEAET [chain 1 D110Y] | ~5.5 RFU |
| chain 1 PRFTTGLVYDTLMLKHQCTCGSSSSHPEHAGRIQSIWSRLQETGLRGKCECIRGRKATLEELQTVHSEAHTLLYGTNPLNRQKLDSKKLLGSLASVFVRLPCGGVGVDSDTIWNEVHSAGAARLDVGCVVELVFKVATGELKNGFAVVRPPGHHAEESTPMGFCYFNSVAVAAKLLQQRLSVSKILIVDWDVHHGNGTQQAFYSDPSVLYMSLHRYDDGNFFPGSGAPDEVGTGPGVGFNVNMAFTGGLDPPMGDAEYLAAFRTVVMPIASEFAPDVVLVSSGFDAVEGHPTPLGGYNLSARCFGYLTKQLMGLAGGRIVLALEGGHDLTAICDASEACVSALLGNELDPLPEKVLQQRPNANAVRSMEKVMEIHSKYWRCLQRTTSTAGRSLIEAQTCENEEAET [chain 1 A125D] | ~4.3 RFU |
| chain 1 PRFTTGLVYDTLMLKHQCTCGSSSSHPEHAGRIQSIWSRLQETGLRGKCECIRGRKATLEELQTVHSEAHTLLYGTNPLNRQKLDSKKLLGSLASVFVRLPCGGVGVDSDTIWNEVHSAGAARLAVGCVVELVFKVATGELKNGFAVVRPPGHHAEESTPMGFYYFNSVAVAAKLLQQRLSVSKILIVDWDVHHGNGTQQAFYSDPSVLYMSLHRYDDGNFFPGSGAPDEVGTGPGVGFNVNMAFTGGLDPPMGDAEYLAAFRTVVMPIASEFAPDVVLVSSGFDAVEGHPTPLGGYNLSARCFGYLTKQLMGLAGGRIVLALEGGHDLTAICDASEACVSALLGNELDPLPEKVLQQRPNANAVRSMEKVMEIHSKYWRCLQRTTSTAGRSLIEAQTCENEEAET [chain 1 C164Y] | ~4.1 RFU |
| chain 1 PRFTTGLVYDTLMLKHQCTCGSSSSHPEHAGRIQSIWSRLQETGLRGKCECIRGRKATLEELQTVHSEAHTLLYGTNPLNRQKLDSKKLLGSLASVFVRLPCGGVGVDSDTIWNEVHSAGAARLAVGCVVELVFKVATGELKNGFAVVRPHGHHAEESTPMGFCYFNSVAVAAKLLQQRLSVSKILIVDWDVHHGNGTQQAFYSDPSVLYMSLHRYDDGNFFPGSGAPDEVGTGPGVGFNVNMAFTGGLDPPMGDAEYLAAFRTVVMPIASEFAPDVVLVSSGFDAVEGHPTPLGGYNLSARCFGYLTKQLMGLAGGRIVLALEGGHDLTAICDASEACVSALLGNELDPLPEKVLQQRPNANAVRSMEKVMEIHSKYWRCLQRTTSTAGRSLIEAQTCENEEAET [chain 1 P151H] | ~4.1 RFU |
| chain 1 PRFTTGLVYDTLMLKHQCTCGSSSSHPEHAGRIQSIWSRLQETGLRGKCECIRGRKATLEELQTVHSEAHTLLYGTNPLNRQKLDSKKLLGSLASVFVRLPCGGVGVDSDTIWNEVHSAGAARLAVGCVVELVFKVATGELKNGFAVVRPPEHHAEESTPMGFCYFNSVAVAAKLLQQRLSVSKILIVDWDVHHGNGTQQAFYSDPSVLYMSLHRYDDGNFFPGSGAPDEVGTGPGVGFNVNMAFTGGLDPPMGDAEYLAAFRTVVMPIASEFAPDVVLVSSGFDAVEGHPTPLGGYNLSARCFGYLTKQLMGLAGGRIVLALEGGHDLTAICDASEACVSALLGNELDPLPEKVLQQRPNANAVRSMEKVMEIHSKYWRCLQRTTSTAGRSLIEAQTCENEEAET [chain 1 G152E] | ~3.9 RFU |
| chain 1 PRFTTGLVYDTLMLKHQCTCGSSSSHPEHAGRIQSIWSRLQETGLRGKCECIRGRKATLEELQTVHSEAHTLLYGTNPLNRQKLDSKKLLGSLASVFVRLPCGGVGVDSDTIWNEVHSAGAARLAVGCVVELVFKVATGELKNGFAVVRPPGHHAEESTPMGFCYFNSVAVAAKLLQQRLSVSKILIVDWDVHHGNRTQQAFYSDPSVLYMSLHRYDDGNFFPGSGAPDEVGTGPGVGFNVNMAFTGGLDPPMGDAEYLAAFRTVVMPIASEFAPDVVLVSSGFDAVEGHPTPLGGYNLSARCFGYLTKQLMGLAGGRIVLALEGGHDLTAICDASEACVSALLGNELDPLPEKVLQQRPNANAVRSMEKVMEIHSKYWRCLQRTTSTAGRSLIEAQTCENEEAET [chain 1 G197R] | ~6.8 RFU |
